Assay results: article PMC10666094

Tested on: CNBP full-length
Assay: MST
Conditions: MST Buffer (composition, salt and pH not given); RED-Tris-NTA labeling 30 min at room temperature; RNA in 16 two-fold dilutions; 60% LED, high MST power …

SARS-CoV-2 genome RNA
Kd: 29.7 µg/mL
